The results in this text go back to paper PMC10140475.

What is called Kd is the free concentration of one partner at which half of the binding sites on the other are occupied at equilibrium, for simple one-to-one binding.

Common to all, as to assay: SPR
Background: Surface plasmon resonance follows binding to a sensor surface in real time, without labels.

For one assay, the target named is eOD-GT8.
Another assay deals with CH31 (germline). Conditions: antibody concentrations 0.98 nM-1,000 nM; parent: N/A.
In the next assay the target is CH31 (mature). Conditions: antibody concentrations 0.98 nM-1,000 nM; parent: <1.
A further assay deals with VRC01 (germline). Conditions: antibody concentrations 0.98 nM-1,000 nM; parent: N/A.
For the next assay, the target named is VRC01 (mature). Conditions: antibody concentrations 0.98 nM-1,000 nM; parent: <10.

In turn, gl-CH31 gave a Kd with eOD-GT8 of 11900 nM.
On to “BG505 SOSIP trimer (fully glycosylated) (from UniProt Q2N0S6)”, for which the Kd in the assay with CH31 (germline) is 4000 nM; in the assay with CH31 (mature) it was 0.14 nM; with VRC01 (germline), 670 nM; with VRC01 (mature), less than 0.1 nM.
